Where a chain is given by its changes, count along the chain named. Numbers in names are those of the source. Where two headings read alike, the source gives them in different places.
Tests used:
MetQ [1] = molecular target: T1, MetQ (Escherichia coli, UniProt P28635); test: isothermal titration calorimetry; assay type: binding
T1 construct: secreted, non-lipidated periplasmic MetQ, C-terminal 6xHis, from E. coli BL21(DE3) Gold
T1 sequence (P28635 23-271): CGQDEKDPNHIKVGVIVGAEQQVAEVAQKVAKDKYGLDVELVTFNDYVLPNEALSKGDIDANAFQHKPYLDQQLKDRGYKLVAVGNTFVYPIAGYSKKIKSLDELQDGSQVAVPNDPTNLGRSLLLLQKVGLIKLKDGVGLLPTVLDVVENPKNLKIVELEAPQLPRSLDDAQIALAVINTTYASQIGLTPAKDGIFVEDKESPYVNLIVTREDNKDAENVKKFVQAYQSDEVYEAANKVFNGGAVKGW

MetNI [2] = molecular target: T2, MetNI (Escherichia coli, UniProt P30750); test: ATPase inhibition, EnzChek phosphate assay; assay type: biochemical
T2 construct: gene metN; DDM-solubilized full MetNI transporter (MetN2MetI2), His-tag purified, prepared as previously described; with D-methionine transport system permease protein MetI
Text: ATPase inhibition, EnzChek phosphate assay on MetNI | we measured the inhibitory constants (Ki) for both L- and D-Met

MetQ [3] = molecular target: T3, MetQ (Escherichia coli, UniProt P28635, N229A); test: isothermal titration calorimetry; assay type: binding
T3 construct: secreted, non-lipidated periplasmic MetQ, C-terminal 6xHis, from E. coli BL21(DE3) Gold
T3 sequence (P28635 23-271 N229A): T1 sequence (P28635 23-271) with N207A

MetNI [4] = molecular target: T4, MetNI (Escherichia coli, UniProt P30750, N295A); test: ATPase inhibition, EnzChek phosphate assay; assay type: biochemical
T4 construct: gene metN; DDM-solubilized full MetNI transporter (MetN2MetI2), His-tag purified, prepared as previously described; with D-methionine transport system permease protein MetI
T4 sequence (P30750 whole entry N295A, one chain of several): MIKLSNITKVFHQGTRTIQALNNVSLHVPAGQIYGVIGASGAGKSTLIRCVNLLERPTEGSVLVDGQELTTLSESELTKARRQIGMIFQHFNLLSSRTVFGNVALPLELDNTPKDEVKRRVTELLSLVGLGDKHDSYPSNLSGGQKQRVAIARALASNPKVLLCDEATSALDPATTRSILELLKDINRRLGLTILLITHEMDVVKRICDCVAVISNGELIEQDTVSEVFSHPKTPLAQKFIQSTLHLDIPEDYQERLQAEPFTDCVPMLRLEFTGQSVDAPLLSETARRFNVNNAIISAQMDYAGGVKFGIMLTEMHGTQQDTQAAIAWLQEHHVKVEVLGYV

MetQ (Escherichia coli) [5] = molecular target: MetQ (Escherichia coli) (UniProt P28635); settings: cited from earlier work
MetQ (Escherichia coli) [6] = molecular target: MetQ (Escherichia coli) (UniProt P28635); settings: cited from earlier work; remark: listed apart in the source
MetNI-Q = molecular target: T5, MetNI-Q (Escherichia coli, UniProt P28635+P31547); test: proteoliposome uptake of 3H-methionine; assay type: biochemical; settings: 50 μM L-Met, 50 μM WT MetQ, ATP-regenerating system in lumen, 5 mM MgCl2, pH 7.5, 37 °C; labelled compound
T5 construct: gene metQ
T5 sequence (P28635 23-271): T1 sequence (P28635 23-271)
T5 sequence (P31547 1-217): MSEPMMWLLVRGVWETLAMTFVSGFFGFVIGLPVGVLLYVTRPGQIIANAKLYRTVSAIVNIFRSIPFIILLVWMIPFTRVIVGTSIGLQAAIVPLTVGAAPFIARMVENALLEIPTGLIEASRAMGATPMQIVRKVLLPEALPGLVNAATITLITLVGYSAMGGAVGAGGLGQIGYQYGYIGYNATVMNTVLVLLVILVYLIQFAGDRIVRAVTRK
T5 sequence (P30750 1-343 partner): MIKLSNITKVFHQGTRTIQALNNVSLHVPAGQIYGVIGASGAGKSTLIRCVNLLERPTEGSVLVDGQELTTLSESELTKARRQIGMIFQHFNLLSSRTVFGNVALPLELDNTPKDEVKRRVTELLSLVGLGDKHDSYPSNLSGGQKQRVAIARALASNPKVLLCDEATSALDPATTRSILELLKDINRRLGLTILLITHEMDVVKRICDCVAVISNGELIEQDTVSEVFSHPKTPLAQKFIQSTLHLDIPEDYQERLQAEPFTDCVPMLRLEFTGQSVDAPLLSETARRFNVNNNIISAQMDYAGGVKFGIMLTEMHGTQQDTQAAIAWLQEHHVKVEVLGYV

purified protein = substrate: Nc1ncnc2c1ncn2[C@@H]1O[C@H](COP(=O)(O)OP(=O)(O)OP(=O)(O)O)[C@@H](O)[C@H]1O; test: purified protein; settings: 500 nM MetNI in DDM, equimolar MgCl2 and ATP, 37 °C, no MetQ, no Met
[7] = molecular target: T6, E. coli MetNI transporter, N295A mutant (E. coli, UniProt P30750 1-343; P31547 1-217, N295A); test: cell-based or functional assay
T6 sequence (looked up) 1: T5 sequence (P30750 1-343 partner) with N295A
T6 sequence (looked up) 2: T5 sequence (P31547 1-217)

[8] = molecular target: T7, E. coli MetNI transporter, E166Q/N295A double mutant, detergent-solubilized (E. coli, UniProt P30750 1-343; P31547 1-217, E166Q | N295A); test: FP; unfolded-refolded N229A MetQ, ATP/EDTA
T7 sequence 1: T5 sequence (P30750 1-343 partner) with E166Q, N295A
T7 sequence 2: T5 sequence (P31547 1-217)

[9] = molecular target: T8, E. coli MetNI transporter, E166Q/N295A double mutant, detergent-solubilized (E. coli, UniProt P30750 1-343; P31547 1-217, E166Q | N295A); test: fluorescence polarisation; 20 nM fluorescein-labelled MetQ held constant, detergent-solubilized E166Q/N295A MetNI 0-10 uM; ATP-bound state mimicked with 5 mM ATP and 10 mM EDTA; no methionine added (unfolded-refolded WT MetQ or native N229A); 57.5 mM Tris pH 7.5, 10 mM TAPS pH 8.5, 150 mM NaCl, 1.5 mM bME, 0.05% DDM; single-site binding model; settings: both partners purified
T8 construct: MetI, the transmembrane (permease) subunit of the E. coli methionine ABC importer MetNI; also called E166Q/N295A MetNI; source: purified, detergent-solubilized (DDM); copies: 2 + 2
T8 sequence (looked up) 1: T5 sequence (P30750 1-343 partner) with E166Q, N295A
T8 sequence (looked up) 2: T5 sequence (P31547 1-217)

[10] = molecular target: T8, E. coli MetNI transporter, E166Q/N295A …; test: fluorescence polarisation; as a1 (5 mM ATP and 10 mM EDTA), unfolded-refolded WT MetQ with exogenous 100 uM D-Met; settings: both partners purified
[11] = molecular target: T8, E. coli MetNI transporter, E166Q/N295A …; test: fluorescence polarisation; as a1 (5 mM ATP and 10 mM EDTA), unfolded-refolded WT MetQ with exogenous 100 uM L-Met; settings: both partners purified
[12] = molecular target: T8, E. coli MetNI transporter, E166Q/N295A …; test: fluorescence polarisation; control: native WT MetQ (co-purifies with L-Met, not unfolded-refolded) with detergent-solubilized E166Q/N295A MetNI; settings: both partners purified

Molecule: CSCC[C@@H](N)C(=O)O [D-Met]
- Kd (MetQ [1]): 6.6 ± 0.6 µM
- Ki (MetNI [2]): 5400 ± 100 µM
- Kd (MetQ [3]): 110 ± 30 µM
- Ki (MetNI [4]): 2400 ± 400 µM

Molecule: MetNI (from UniProt P30750)
- Kd (MetQ (Escherichia coli) [5]): 1.1 µM
- Kd (MetQ (Escherichia coli) [6]): 0.027 µM

Molecule: CSCC[C@H](N)C(=O)O [L-Met]
- Kd (MetQ [1]): 0.0066 ± 0.0006 µM
- Ki (MetNI [2]): 120 ± 20 µM
- Kd (MetQ [3]): 300 ± 70 µM
- Ki (MetNI [4]): 3300 ± 300 µM
- uptake rate (MetNI-Q): L-Met was imported into proteoliposomes

B1: MetNI (Escherichia coli K-12) (protein)
chain: T5 sequence (P30750 1-343 partner)
- Km (purified protein): 800 ± 100 µM
- kcat (purified protein): 0.4 ± 0.067 s⁻¹

B2: MetNI (Escherichia coli K-12; N295A) (protein)
chain: T5 sequence (P30750 1-343 partner) with N295A
- Km (purified protein): 812 ± 4 µM
- kcat (purified protein): 0.4 ± 0.067 s⁻¹

B3: E. coli MetQ N229A, secreted (non-lipidated), C-terminal 6x-histidine tag (natural protein, UniProt P28635 23-271, looked up)
chain: T1 sequence (P28635 23-271) with N207A
modifications: fluorescein 5-maleimide on the single native cysteine at position 23 (anisotropy experiments)
notes: secreted non-lipidated form isolated from the periplasmic extract; The protein is unlabelled in the ATPase assays; also called N229A MetQ; native N229A; source: E. coli BL21 (DE3) Gold, periplasmic extract, purified (HisTrap, Superdex 200); not shown: His6, C-terminal, kept
- kcat of MetQ-stimulated ATPase activity of detergent-solubilized N295A MetNI, 5 mM MgATP, native N229A MetQ 0-50 μM [7]: 4.45 s⁻¹
- Kd [8]: 0.113 µM
- Kd [9]: 0.3 µM

B4: E. coli MetQ substrate-binding protein, wild type, secreted (non-lipidated), C-terminal 6x-histidine tag (natural protein, UniProt P28635 23-271, looked up)
chain: T1 sequence (P28635 23-271)
modifications: fluorescein 5-maleimide on the single native cysteine at position 23 (anisotropy experiments)
notes: secreted non-lipidated form isolated from the periplasmic extract; Cys23 is present; WT(apo), WT(LM) and WT(DM) are the same protein without methionine, with 100 uM L-Met or with 100 uM D-Met; native WT co-purifies with L-Met; The protein is unlabelled in the ATPase assays; also called WT MetQ; WT(apo); source: E. coli BL21 (DE3) Gold, periplasmic extract, purified (HisTrap, Superdex 200); not …
- kcat of MetQ-stimulated ATPase activity of detergent-solubilized N295A MetNI, 5 mM MgATP, WT(DM) MetQ 0-50 μM with 100 μM D-Met [7]: 1.83 s⁻¹
- kcat of MetQ-stimulated ATPase activity of detergent-solubilized N295A MetNI, 5 mM MgATP, WT(LM) MetQ 0-50 μM with 100 μM L-Met [7]: 1 s⁻¹
- kcat of MetQ-stimulated ATPase activity of detergent-solubilized N295A MetNI, 5 mM MgATP, WT(apo) MetQ 0-50 μM [7]: 4 s⁻¹
- Kd [10]: 0.8 µM
- Kd [11]: 5 µM
- Kd [12]: 8 ± 2 µM
- Kd [9]: 0.4 µM

Source: PMC12357092, “Two stages of substrate discrimination dictate selectivity in the Escherichia coli MetNI-Q ABC transporter system” (The Journal of Biological Chemistry, 2025)
